These results are taken from patent US20030148417A1.

Holding throughout (assay): cell-based or functional assay
Experiment [1] has as its target recombinant TcAP2 protein (aspartic endoproteinase from Theobroma cacao, secreted by Yarrowia lipolytica clone pCY330-33) (Theobroma cacao).
Experiment [2] deals with native purified aspartic endoproteinase from cacao beans (TcAP2, 30.5 kDa polypeptide), size exclusion pool #57-64 (Theobroma cacao).
Experiment [3] addresses bovine haemoglobin (bovine) (UniProt P01966).

bovine haemoglobin (bovine), sequence (P01966 2-142, chain 1 of 2): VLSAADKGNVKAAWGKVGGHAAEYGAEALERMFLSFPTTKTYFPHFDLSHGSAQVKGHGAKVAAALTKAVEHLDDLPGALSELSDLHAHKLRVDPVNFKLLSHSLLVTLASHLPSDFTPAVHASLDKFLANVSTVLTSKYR
bovine haemoglobin (bovine), sequence (P02070 whole entry, chain 2 of 2, further chain): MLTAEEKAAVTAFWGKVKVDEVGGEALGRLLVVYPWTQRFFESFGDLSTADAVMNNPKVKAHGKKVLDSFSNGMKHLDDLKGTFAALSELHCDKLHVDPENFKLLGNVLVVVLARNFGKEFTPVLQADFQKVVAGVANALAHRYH
native purified aspartic endoproteinase from cacao beans (TcAP2, 30.5 kDa polypeptide), size exclusion pool #57-64 (Theobroma cacao), sequence (chain, as listed by the source limits assumed, form in doubt): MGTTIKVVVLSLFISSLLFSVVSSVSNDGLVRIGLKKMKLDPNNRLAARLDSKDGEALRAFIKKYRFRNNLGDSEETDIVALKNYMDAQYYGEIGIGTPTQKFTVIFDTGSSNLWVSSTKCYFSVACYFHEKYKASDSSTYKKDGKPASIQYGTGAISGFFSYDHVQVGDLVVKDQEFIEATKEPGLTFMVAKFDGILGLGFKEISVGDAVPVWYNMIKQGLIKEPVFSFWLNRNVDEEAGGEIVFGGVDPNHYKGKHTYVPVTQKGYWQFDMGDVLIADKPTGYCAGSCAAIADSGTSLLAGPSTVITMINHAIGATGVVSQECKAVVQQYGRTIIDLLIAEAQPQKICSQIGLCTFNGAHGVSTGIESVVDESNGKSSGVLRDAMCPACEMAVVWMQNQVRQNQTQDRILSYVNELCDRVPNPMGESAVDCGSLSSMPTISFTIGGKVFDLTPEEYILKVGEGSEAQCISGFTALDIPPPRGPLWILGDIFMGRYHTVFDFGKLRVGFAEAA

Pepstatin A (peptide): the pepstatin insensitive activity (hydrolysis of bovine haemoglobin, 2 µM pepstatin), percent of uninhibited activity in experiment [1] is 6.65%. The substance further had a Remaining Activity % (hydrolysis of bovine hemoglobin, 0.002 mM Pepstatin A) in experiment [2] of 0%. In turn, “recombinant TcAP2 protein (aspartic endoproteinase from Theobroma cacao, secreted by Yarrowia lipolytica clone pCY330-33) (enzyme)” showed a hydrolysis of bovine haemoglobin, activity at pH 3 without inhibitor (taken as 100%) (pmoles L-leucine produced/min/mg protein) in experiment [3] of 28.8.
